The text below walks through data of US8198236B2, “Methods and compositions for the treatment of cancer” (Washington University, priority 2007, dated 2012).

For data set [1], the target named is T1, LRP6 (Homo sapiens, UniProt O75581).
T1 construct: expressed in transfected cells; host or cells: human HT1080 cells, retroviral vector pLNCX2
In words: Competition for 125I-Mesd binding to cell surface LRP6. As for the experimental part:
To examine whether Mesd binds with high affinity to most members of the LDLR family at the cell surface, we performed cell surface ligand binding experiments with cells stably transduced with LRP6 cDNA. Human HT1080 cells, which express undetectable levels of LRP6, were transduced with a viral vector alone (pLNCX2) or with vector containing LRP6 cDNA (Li, Y., Oncogene 23: 9129-9135, 2004) and used for ^125I-Mesd binding (FIG. 1A). ^125I-Mesd (5 nM) reached maximal binding after 2 hours incubation at 4° C. with LRP6-expressing HT1080 cells (FIG. 1A).
Cells (2×10^5) were seeded into 12-well dishes 1 day prior to assay. Ligand-binding buffer (minimal Eagle's medium containing 0.6% BSA with a different concentration of radioligand, 0.6 ml/well) was added to cell monolayers, in the absence or the presence of 500 nM unlabeled RAP or 500 nM unlabeled Mesd, followed with incubation for 0-4 hours at 4° C. Thereafter, overlying buffer containing unbound ligand was removed, and cell monolayers were washed and lysed in low-SDS lysis buffer (62.5 mM Tris-HCl pH 6.8, 0.2% SDS, 10% v/glycerol) and counted.
We performed binding of 5 nM ^125I-Mesd (5 nM) to cell surface LRP6 in the presence of various concentrations of excess unlabeled RAP or 500 nM unlabeled Mesd (FIG. 8B). RAP inhibited ^125I-Mesd binding in a dose-dependent manner with ˜60% inhibition achieved with 500 nM RAP, whereas the same concentration of unlabeled Mesd inhibited >90% of ^125I-Mesd binding (FIG. 8B). […] The lower affinity of RAP to cell surface LRP6 may also contribute to its lower efficiency in inhibition of Mesd binding.
In FIG. 8A, binding of ^125I-RAP (5 nM) to LRP6-transduced HT1080 cells and the control cells was carried out for 4 hours at 4° C. in the absence (total) or presence of 500 nM RAP, or 500 nM Mesd. In FIG. 8B, binding of^125I-Mesd (5 nM) to LRP6-transduced HT1080 cells was carried out for 2 hours at 4° C. in the absence (total) or presence of various concentrations of RAP or 500 nM Mesd. (C) LRP6-mediated ^125I-Mesd (5 nM) degradation was carried out for 4 hours at 37° C. in the absence or presence of 500 nM Mesd or 500 nM RAP. Values are the means of triple determinations with the s.d. indicated by error bars.
In order to investigate the binding of Mesd polypeptide and an Mesd oligopeptide to either LRP5 or LRP6, binding assays were performed using ^125I-Mesd or ^125I-DKK1 (FIG. 10).

The test system of data set [2] is Wnt signaling. In words: Wnt signaling in MMTV-Wnt1 tumors (GST-E-cadherin pull-down, c-Myc expression). The class given is in vivo, mice. Particulars: GST-E-cadherin pull-down and c-Myc expression. As for the experimental part:
The GST-E-cadherin pulldown assay was performed as previously described (2). Cells expressing control or LRP6 shRNA were treated with L cells or Wnt3a-conditioned media (CM) for 4 h. Free β-catenin was determined using a GST-E-cadherin pull-down assay. Cells were lysed for 30 minutes at 4° C. Protein concentrations in lysates were quantified, and equal quantities of total proteins from different samples were incubated with GST-E-cadherin Sepharose beads for 4 h at 4° C. After incubation, the beads were washed three times and the bound proteins were eluted and separated via SDS-PAGE. Western blotting was performed using antibody to β-catenin.
In these experiments, mice bearing established MMTV-Wnt1 tumor transplants were divided into three groups (five animals per group) and were i.p. injected with PBS (vehicle), Mesd, or Mesd peptide every other day. Tumor volume was analyzed using caliper measurement. Data represent at least three independent experiments and each time point represents the mean tumor volume±SEM. *p<0.05; **p<0.01. […] Scale bar=50 μm.

Data set [3] relates to Wnt signaling. In words: TCF/LEF-luc reporter assay in Wnt-3A-treated HEK293 cells. The class given is cell-based. Particulars: Wnt3A conditioned medium plus 500 nM, 16 hours at 37° C. As for the experimental part:
HEK293 cells were plated into six-well plates. For each well, 0.1 μg of the TOP-FLASHTCF luciferase construct (Upstate Biotechnology) was cotransfected with 0.8 μg Mesd-expressing vector, 0.8 μg Mesd mutant-expressing vector, or empty vector. A β-galactosidase-expressing vector (Promega, Madison, Wis.) was included as an internal control for transfection efficiency. After 48 hours, cells were lysed and both luciferase and β-galactosidase activities were determined with enzyme assay kits (Promega). The luciferase activity was determined with a luminometer using the Dual Luciferase Assay system (Promega). Luciferase activity was normalized to the activity of the β-galactosidase.
In these experiments, transfected cells were treated without Wnt-3A or with Wnt-3A plus the indicated inhibitors (Mesd and/or Dkk1) for 16 hours at 37° C. Wnt signaling was measured by quantifying the luciferase activity using a live cell imaging system.
(In general: In a reporter assay the amount or activity of a reporter protein is the signal.)

Data set [4] can be described thus: Mesd in serum after a single i.p. dose (Western blot quantification). The class given is in vivo, mice. A general note: A western blot detects proteins with antibodies after separation by electrophoresis.
Protocol: In experiments shown in FIG. 23, pharmacokinetics of Mesd peptide and Mesd were examined. FIG. 23A: Amount of Mesd in serum following a single dose of protein administration. Mice were dosed at 5, 10, 20 mg/kg of Mesd via i.p. and the serum samples were collected from individual mice at the indicated time points. The levels of Mesd in serum were quantified by comparison to Mesd pure protein with known concentrations in Western blot analysis. Values are the average of triple determinations with S.D. indicated by error bars. […] Samples were obtained by terminal bleed under anesthesia at each of the indicated time points (N=3 animals per time point). Radioactivity was measured using a gamma counter and DPM converted to mass units/mL blood using the specific activity (DPM/mass) of each test substance. Data are plotted as mass U/mL of test substance with standard deviation indicated by error bars.
Data set [5] in a line: Side effects on non-tumor tissues of treated mice (H&E staining, x-ray, weight).
Protocol: Hemotoxylin and eosin (H&E) staining was performed on tumor xenograft tissue, skin and intestine harvested at the end of Mesd treatment.
FIG. 24D: H&E staining of tail vertebrae treated with PBS, Mesd or Mesd peptide.

T1 sequence (O75581 20-1613): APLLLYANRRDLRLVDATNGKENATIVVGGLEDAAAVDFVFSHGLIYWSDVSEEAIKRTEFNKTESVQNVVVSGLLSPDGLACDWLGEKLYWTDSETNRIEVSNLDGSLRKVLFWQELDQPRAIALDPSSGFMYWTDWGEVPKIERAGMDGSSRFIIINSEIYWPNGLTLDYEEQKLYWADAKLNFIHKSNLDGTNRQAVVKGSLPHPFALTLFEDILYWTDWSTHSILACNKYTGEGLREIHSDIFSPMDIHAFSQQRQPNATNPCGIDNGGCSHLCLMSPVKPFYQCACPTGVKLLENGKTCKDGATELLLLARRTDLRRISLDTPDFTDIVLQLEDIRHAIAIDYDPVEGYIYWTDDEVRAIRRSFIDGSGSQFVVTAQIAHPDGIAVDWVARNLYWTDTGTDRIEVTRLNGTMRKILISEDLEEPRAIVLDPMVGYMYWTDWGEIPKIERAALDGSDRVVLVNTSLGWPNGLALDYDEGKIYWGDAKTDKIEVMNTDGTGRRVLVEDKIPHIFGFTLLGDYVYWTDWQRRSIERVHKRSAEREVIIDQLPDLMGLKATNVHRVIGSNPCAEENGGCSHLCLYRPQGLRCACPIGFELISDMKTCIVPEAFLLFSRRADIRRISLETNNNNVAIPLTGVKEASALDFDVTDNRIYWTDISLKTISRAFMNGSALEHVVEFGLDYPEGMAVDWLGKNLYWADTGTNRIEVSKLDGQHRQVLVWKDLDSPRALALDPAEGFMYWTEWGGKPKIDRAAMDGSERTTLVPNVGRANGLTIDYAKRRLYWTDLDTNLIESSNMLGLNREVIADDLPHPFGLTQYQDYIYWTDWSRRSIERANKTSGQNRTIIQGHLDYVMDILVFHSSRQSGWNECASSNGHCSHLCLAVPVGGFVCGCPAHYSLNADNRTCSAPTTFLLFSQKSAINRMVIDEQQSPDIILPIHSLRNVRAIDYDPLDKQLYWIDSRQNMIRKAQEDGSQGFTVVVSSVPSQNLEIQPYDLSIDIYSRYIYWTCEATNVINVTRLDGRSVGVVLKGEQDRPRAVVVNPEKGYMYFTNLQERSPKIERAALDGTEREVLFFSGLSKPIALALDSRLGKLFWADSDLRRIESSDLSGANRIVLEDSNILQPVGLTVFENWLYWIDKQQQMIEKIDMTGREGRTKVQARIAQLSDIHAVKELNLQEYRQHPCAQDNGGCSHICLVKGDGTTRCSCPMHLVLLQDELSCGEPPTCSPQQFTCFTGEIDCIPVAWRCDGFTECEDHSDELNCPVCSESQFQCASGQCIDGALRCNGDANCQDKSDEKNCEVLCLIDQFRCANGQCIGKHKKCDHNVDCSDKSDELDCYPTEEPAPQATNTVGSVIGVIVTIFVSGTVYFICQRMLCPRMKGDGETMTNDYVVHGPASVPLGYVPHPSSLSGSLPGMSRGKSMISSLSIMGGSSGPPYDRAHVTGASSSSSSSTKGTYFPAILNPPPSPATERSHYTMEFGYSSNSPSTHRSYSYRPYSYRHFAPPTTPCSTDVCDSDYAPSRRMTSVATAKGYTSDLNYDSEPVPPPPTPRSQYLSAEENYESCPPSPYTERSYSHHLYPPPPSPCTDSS

B1: Mesd: Recombinant full-length mouse Mesd expressed in E. coli, N-terminal polyhistidine tail, lacking the signal peptide (protein)
chain: ADTPGEATPPPRKKKDIRDYNDADMARLLEQWEKDDDIEEGDLPEHKRPSAPIDFSKLDPGKPESILKMTKKGKTLMMFVTVSGNPTEKETEEITSLWQGSLFNANYDVQRFIVGSDRAIFMLRDGSYAWEIKDFLVSQDRCAEVTLEGQMYPGKGGGSKEKNKTKPEKAKKKEGDRKPRASKEDNRAGSRREDL
modifications: left off: small tags and cut ends
notes: Recombinant full-length mouse Mesd expressed in E. coli, N-terminal polyhistidine tail, lacking the signal peptide
On to B1, for which the “Inhibition of 125I-Mesd binding to cell surface LRP6” value in data set [1] (500 nM unlabeled competitor, 125I-Mesd 5 nM, 2 hours at 4° C.) is on record as > 90%. In data set [1] (500 nM unlabeled, 125I-Mesd 5 nM, 4° C.), the “Effect of excess unlabeled protein on 125I-Mesd binding” value is “completely eliminated this binding”. Also, the “Reduction of binding of 125I-Mesd to LRP6” value in data set [1] (FIG. 10C, compared with LRP5) is recorded as “even greater reduction”. The “Wnt signaling in tumors compared to control treatment” value in data set [2] was “decreased Wnt signaling”. Moreover, the “Inhibition of Wnt signaling (luciferase activity)” value in data set [3] is “moderately inhibit”. Further, the Absorption after dosing entry in data set [4] is on record as “rapidly absorbed”. Besides, the “Adverse effect on small intestine (gross examination)” value in data set [5] (FIG. 17E) is reported as “no significant adverse effect”. Further, the “Architecture of gastrointestinal compartments and skin (H&E)” value in data set [5] (after 10 treatments) is given as “morphologically normal”. Further, the “Bone lesions or outgrowths in tail vertebrae” value in data set [5] (conditions in which antitumor efficacy was achieved) is listed as “no significant bone lesions or outgrowths”. For the same molecule, the “General health and body weight of treated mice” value in data set [5] (mouse, in vivo) is “grossly healthy and maintain their weights”.
